Data as given in patent US20220356228A1.
Residue numbers refer to the chain shown, from its start.

B1: 6G5 (antibody, V domains shown)
VH: QVQLVQSGAEVKKPGASVKVSCKASGYTFTNYDIHWVRQAAGQGLEWMGWTNPNSGNSDYAQKFQGRVSMTRDTSMRTMYMELNSLRSEDTAVYFCARKIWVGTTIFDYWGQGTLVTVSS
VL: DIQMTQSPSSLSASVGDRVTIACRASQSIYRFLSWYQQKPGTAPKLLIFAVSSLQSGVPSRFSGSGSGTDFTLTISSLHPEDFAIYYCQQSDSPPLTFGGGTKVGIK
B2: 6H7 (antibody, V domains shown)
VH: QVQLVESGGGLVKPGGSLRLSCAGSGFTFSDHYMSWIRQAPGKGLEWVSYISTSGRTIFYVDSVKGRFTISRDNAKNSLYLQMNSLRAEDMAVYYCASDYYDNVGWNYWGQGALVIVSS
VL: DVVLTQSPLSLPVTLGQPASISCRSSQSLVYSDGNTYLNWFQQRPGQSPRRLIYKVSDRDFGVPDRFSGSGSGTDFTLKISRVEAEDVGIYYCMQGTHWPRTFGQGTKVEIK
B3: 5G5 (antibody, V domains shown)
VH: LVQLVESGGGLVKPGGSLRLSCTASGITFSDLYMSWIRQSPGKGLEWISYISTSGRTIYYTDSVKGRFTISRDNAKNSLFLQMNRLRADDTAVYYCAGDYYDNSGWDYWGRGTLVTVSS
VL: B2 VL with D1N, L4M, T14A, S26G, F61S
B4: 8C3 (antibody, V domains shown)
VH: B2 VH with G24A, F59H, V61A, N107D, A113T, I116T
VL: B2 VL with L4M, V30L, F61S, E86D, I90V, T97A

Target: JCV major capsid protein VP1, wild type (John Cunningham virus (JCV)) (UniProt P03089)
Sequence (P03089 whole entry): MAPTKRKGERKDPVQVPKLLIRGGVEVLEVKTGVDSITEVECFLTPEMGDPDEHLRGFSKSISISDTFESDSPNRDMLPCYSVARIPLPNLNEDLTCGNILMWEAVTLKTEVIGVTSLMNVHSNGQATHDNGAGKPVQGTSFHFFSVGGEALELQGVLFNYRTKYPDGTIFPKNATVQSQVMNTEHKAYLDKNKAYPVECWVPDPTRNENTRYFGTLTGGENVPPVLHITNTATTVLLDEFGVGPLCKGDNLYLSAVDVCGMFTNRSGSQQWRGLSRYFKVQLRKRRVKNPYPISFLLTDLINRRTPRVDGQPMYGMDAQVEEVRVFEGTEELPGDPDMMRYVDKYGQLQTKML
Assay: cell-based or functional assay

Binder	Neutralization of WT JCV: EC50 [pM]
B1	3.1 pM
B2	0.5 pM
B3	0.4 pM
B4	14 pM
